This is an account of results in PMC7431705, “Angiogenesis Inhibition by a Short 13 Amino Acid Peptide Sequence of Tetrastatin, the α4(IV) NC1 Domain of Collagen IV” (Frontiers in Cell and Developmental Biology, 2020).

Where a SMILES comes first, the peptide text is derived from it. Bridges are numbered along the chain shown (N, C = ends).

Experiment [1] has as its target T1, α5β1 integrin (Homo sapiens, UniProt P05556+P08648).
T1 construct: purchased R&D Systems 3230-A5-050
Kind of experiment: Surface plasmon resonance (Biacore T200). The format is binding. The following applies: biotinylated QS-13 (QKISRCQVCVKYSK-biot) captured on streptavidin CM5 chip; α5β1 integrin 0.12-130 nM; HBS pH 7.4, 3.4 mM EDTA, 0.05% P20, 25°C; Req fitted to 1:1 model. Here is the method: All experiments were performed on a Biacore T200 instrument (GE Healthcare) at 25°C. Sensor surfaces and other Biacore consumables were purchased from GE Healthcare. Integrin α5β1 was from R&D Systems. The running buffer, HEPES buffered saline (HBS, composed of 0.01 M HEPES, pH 7.4, 0.15 M NaCl, 3.4 mM EDTA) was filtered through a 0.22 μm membrane and supplemented with 0.05% P20. Biotinylated peptides were captured on streptavidin-coated sensor chips. Briefly, CM5 sensor chips (GE Healthcare) were preconditioned by duplicate injections of 10 mM HCl, 50 mM NaOH, each for 10 s, and water for 20 s. Before covalent immobilization of streptavidin, traces of biotinylated products that could remain in the flow system were neutralized by injecting a streptavidin solution (0.1 mg/mL in running buffer) for 5 min through all flow cells ([Baltzinger et al., 2013]). Streptavidin was then stably immobilized using standard amine-coupling methods. The flow rate was 10 μL/min. […] The equilibrium response (Req) was recorded 5 s before the end of integrin injection. The KD was determined by fitting the equilibrium response versus the [integrin] curve to a simple 1:1 interaction model with the Biacore T200 evaluation software (GE Healthcare).

For another experiment, the system named is cancer. The following applies: ref Stoeltzing et al., 2003; Khalili et al., 2006; cited from earlier work. The text has this:
Peptides also emerged as important therapeutic agents in angiogenesis-dependent diseases due to their low toxicity and high specificity ([Rosca et al., 2011]).

The next experiment has as its system cancer patients. The arrangement: method as in 3 sources, one per row (each row's own in cited_ref): ref Besse et al., 2013 ||| ref Cianfrocca et al., 2006 ||| ref Alday-Parejo et al., 2019. As to conditions: cited from earlier work.
For experiment [2], the system named is angiogenesis, tumor growth and metastasis. The arrangement: method as in Almokadem and Belani, 2012. The following applies: mice; ref Almokadem and Belani, 2012; cited from earlier work.
Experiment [3] has as its target T1, α5β1 integrin. Kind of experiment: Solid phase assay, binding to coated integrin. As to conditions: coated 25 nM α5β1 integrin; biotinylated QS-13 90 min, room temperature, 1 mM MgCl2 and CaCl2; streptavidin-peroxidase/TMB 450 nm; n = 4, 2 experiments. Here is the method:
Wells of a 96-well plate were coated with 25 nM α5β1 integrin (3230-A5-050; R&D Systems, Lille, France) in amounts overnight at room temperature. The coating was then blocked with TBS containing 5% dry milk, 1 mM MgCl2, and 1 mM CaCl2 for 2 h at room temperature. After washing three times with washing buffer (0.1% dry milk, 1 mM MgCl2, and 1 mM CaCl2 in TBS), the plate was incubated for 90 min at room temperature with 100 μL per well of ranging from 1.25 to 20.10^–11 moles/well biotinylated-QS-13 diluted in washing buffer. After 3 washes, 100 μL of streptavidin-peroxidase diluted 1/20000 in washing buffer were added to each well and incubated for 15 min at room temperature. After 4 washes, 100 μL per well of tetramethylbenzidine (TMB), a peroxidase substrate, were added and incubated in the dark for 15 min. The enzymatic reaction was stopped by adding 50 μL per well of 0.5 M H2SO4. The intensity of the yellow coloration was measured at 450 nm with a Biochrom Asys UVM 340 microplate reader.

Another experiment has as its system HUVEC adhesion on QS-13. Nature of the experiment: HUVEC adhesion on QS-13 coating with effector preincubation. The format is cell-based, Human. The following applies: peptide 20 μg/mL (legend Figure 5), 30 min preincubation; adhesion 60 min; n = 8, p < 0.001. The method, then: Cells were detached with 50 mM Hepes, 125 mM NaCl, 5 mM KCl, and 1 mM EDTA, washed three times with ECGM, pre-incubated for 30 min with effectors [mouse anti-human α5β1, catalog number 555614 from BD Pharmingen (10 μg/mL), irrelevant IgG ([…])]. 10,000 cells were seeded per well of a 96 well-plate previously coated with QS-13 and saturated with 1% BSA. After 60 min, cells were washed three times with HEPES buffered Balanced Salt Solution, fixed with 1.1% glutaraldehyde solution and stained with 1% crystal violet solution. Staining was extracted with 10% acetic acid and absorbance was read at 560 nm.
For in vitro experiments, results are expressed as the mean ± SD and statistical significance were determined using Student’s t-test. For in vivo experiments, the non-parametric Mann–Whitney test was performed.

Experiment [4] addresses Biotinylated QS-13 (…-biot). Nature of the experiment: SPR; Biacore T200, 25°C; biotinylated QS-13 captured on a streptavidin-coated CM5 chip; α5β1 integrin injected at 0.12-130 nM, 300 s; HBS (0.01 M HEPES pH 7.4, 0.15 M NaCl, 3.4 mM EDTA) with 0.05% P20; reference surface with an irrelevant biotinylated peptide; equilibrium response fitted to a 1:1 model. On the technique in general: Surface plasmon resonance follows binding to a sensor surface in real time, without labels.

In experiment [5] the target is QS-13 peptide (…), minimal active sequence of Tetrastatin, the α4(IV) NC1 domain of collagen IV.
Experiment [6] has the same target. The source holds these as a separate data set.
Another experiment relates to angiogenesis. As to conditions: ref Petitclerc et al., 2000; Wietecha et al., 2013; Monboisse et al., 2014; cited from earlier work. The text has this:
Basement membrane are composed of type IV collagen in association with other minor collagens, such as collagens XVIII or XIX, laminins, nidogens, and perlecan. Type IV collagen is composed of three α(IV) chains, out of six possible [α1(IV)-α6(IV)]. Each α(IV) chain comprises a 7S N-terminal domain, a long interrupted triple helical domain and a globular C-terminal non-collagenous (NC1) domain ([Wu and Ge, 2019]).

The target in experiment [7] is T1, α5β1 integrin. The arrangement: method as in Sudhakar et al., 2003. The following applies: ref Sudhakar et al., 2003; cited from earlier work.
The subject of another experiment is αvβ3 integrin. As to conditions: tumor cell surface; ref Pasco et al., 2000; Brassart-Pasco et al., 2012; Lambert et al., 2018; cited from earlier work. The text has this: The NC1 domains of the different α(IV) collagen chains were reported to exert anti-tumor or anti-angiogenic effects ([Mundel and Kalluri, 2007]; [Monboisse et al., 2014]; [Brassart-Pasco et al., 2020]).

T1 sequence (P08648 42-894 limits assumed): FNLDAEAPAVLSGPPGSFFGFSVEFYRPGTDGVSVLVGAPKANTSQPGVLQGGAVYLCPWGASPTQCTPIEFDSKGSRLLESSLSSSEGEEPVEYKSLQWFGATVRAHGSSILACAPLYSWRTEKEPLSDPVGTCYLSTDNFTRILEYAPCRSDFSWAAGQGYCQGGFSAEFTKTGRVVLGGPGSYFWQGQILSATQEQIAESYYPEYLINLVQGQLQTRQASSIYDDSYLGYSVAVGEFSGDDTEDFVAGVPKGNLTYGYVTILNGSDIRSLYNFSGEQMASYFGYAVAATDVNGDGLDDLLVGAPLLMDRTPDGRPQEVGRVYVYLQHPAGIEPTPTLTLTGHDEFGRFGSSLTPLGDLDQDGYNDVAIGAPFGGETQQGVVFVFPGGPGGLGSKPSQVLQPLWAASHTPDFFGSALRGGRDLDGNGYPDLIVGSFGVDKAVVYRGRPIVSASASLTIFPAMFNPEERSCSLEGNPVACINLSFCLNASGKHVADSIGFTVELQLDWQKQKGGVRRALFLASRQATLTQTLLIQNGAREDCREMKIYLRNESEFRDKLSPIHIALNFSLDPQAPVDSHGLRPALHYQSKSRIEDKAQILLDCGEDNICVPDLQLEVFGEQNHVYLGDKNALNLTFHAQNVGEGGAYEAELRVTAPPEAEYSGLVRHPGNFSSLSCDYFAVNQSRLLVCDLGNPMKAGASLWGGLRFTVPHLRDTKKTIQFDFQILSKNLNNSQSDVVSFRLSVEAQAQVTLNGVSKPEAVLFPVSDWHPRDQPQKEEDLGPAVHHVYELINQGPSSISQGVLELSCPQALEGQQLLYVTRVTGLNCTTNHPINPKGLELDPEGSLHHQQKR
T1 sequence (P08648 895-995 partner limits assumed): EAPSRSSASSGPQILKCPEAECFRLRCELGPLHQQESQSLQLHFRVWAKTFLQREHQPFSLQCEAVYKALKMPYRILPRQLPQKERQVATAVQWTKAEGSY
T1 sequence (P05556 21-728 limits assumed): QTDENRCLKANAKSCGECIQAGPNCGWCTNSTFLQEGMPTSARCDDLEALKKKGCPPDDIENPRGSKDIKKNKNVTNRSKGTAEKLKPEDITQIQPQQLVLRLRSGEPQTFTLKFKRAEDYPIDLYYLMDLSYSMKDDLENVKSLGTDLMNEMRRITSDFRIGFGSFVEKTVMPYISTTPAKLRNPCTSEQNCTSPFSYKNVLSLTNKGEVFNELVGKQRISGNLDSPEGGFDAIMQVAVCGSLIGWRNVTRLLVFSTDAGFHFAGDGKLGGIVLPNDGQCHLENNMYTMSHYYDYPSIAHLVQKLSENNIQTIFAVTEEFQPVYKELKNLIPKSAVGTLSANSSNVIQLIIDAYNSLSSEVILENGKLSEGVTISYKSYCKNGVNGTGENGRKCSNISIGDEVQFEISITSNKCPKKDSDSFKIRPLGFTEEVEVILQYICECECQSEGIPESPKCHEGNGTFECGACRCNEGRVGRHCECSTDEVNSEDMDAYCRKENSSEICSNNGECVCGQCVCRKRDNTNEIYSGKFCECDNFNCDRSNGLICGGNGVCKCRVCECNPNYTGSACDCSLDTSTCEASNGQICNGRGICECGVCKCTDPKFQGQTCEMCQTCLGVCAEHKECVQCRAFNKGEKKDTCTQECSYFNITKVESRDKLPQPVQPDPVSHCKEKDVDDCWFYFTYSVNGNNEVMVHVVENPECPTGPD

For `CC[C@H](C)[C@H](NC(=O)[C@H](CCCCN)NC(=O)[C@@H](N)CCC(N)=O)C(=O)N[C@@H](CO)C(=O)N[C@@H](CCCNC(=N)N)C(=O)N[C@H]1CSSC[C@@H](C(=O)N[C@H](C(=O)N[C@@H](CCCCN)C(=O)N[C@@H](Cc2ccc(O)cc2)C(=O)N[C@@H](CO)C(=O)O)C(C)C)NC(=O)[C@H](C(C)C)NC(=O)[C@H](CCC(N)=O)NC1=O` [QS-13, QKISRCQVCVKYS] (H-QKISRCQVCVKYS-OH; disulfide 6-9), the dissociation constant (Kd) (usually the equilibrium constant for the complex coming apart) at α5β1 integrin [1] is 20.3 ± 7.5 nM.
With “Ac-PHSCN-NH(2) [ATN-161, reference compound]”, in the experiment on cancer, the preclinical anti-cancer activity result was “showed preclinical anti-cancer activities”. Further, the clinical benefit result in the experiment with cancer patients (ref Cianfrocca et al., 2006) was “failed to provide therapeutic benefits”.
As to “M200/volociximab: anti-α5β1 integrin antibody”, the “effect on angiogenesis, tumor growth and metastasis” value in [2] was “inhibit angiogenesis and to suppress tumor growth and metastasis in mice”. Further, the “efficacy in advanced NSCLC” value with cancer patients (ref Besse et al., 2013) was “preliminary evidence of efficacy in advanced NSCLC”.
For the molecule “QKISRCQVCVKYSK-biot (disulfide) [biotinylated-QS-13]”, the “binding to α5β1 integrin” value on α5β1 integrin [3] is “binds to α5β1 integrin in a ligand concentration dependent manner”.
Turning to “RGDS [RGDS peptide, RGDS peptide (Sigma)]”, the “inhibition of HUVEC adhesion on QS-13 coating (peptide competition)” value in the experiment with HUVEC adhesion on QS-13 is on record as “about 60%”.
Turning to “α5β1 integrin (recombinant, R&D Systems 3230-A5-050) (from UniProt P08648 42-1049; P05556 21-728) (receptor)”, the Kd in experiment [4] amounted to 20.3 nM.
Take “α5β1 integrin of Human Umbilical Vein Endothelial Cells (HUVEC) (from UniProt P05556 21-798) (receptor)”: the HUVEC adhesion on coated QS-13 after 30 min pre-incubation of the cells with RGDS peptide: change of adhesion in [5] was -60%. Further, the HUVEC adhesion on coated QS-13 after pre-incubation of the cells with a blocking anti-α5β1 integrin antibody (10 μg/mL): inhibition of adhesion; an irrelevant IgG had no effect in experiment [6] turned out to be 71%.

B1: Arresten: the α1(IV) NC1 domain (protein, UniProt P02462 1445-1669, looked up)
Arresten: GFLVTRHSQTIDDPQCPSGTKILYHGYSLLYVQGNERAHGQDLGTAGSCLRKFSTMPFLFCNINNVCNFASRNDYSYWLSTPEPMPMSMAPITGENIRPFISRCAVCEAPAMVMAVHSQTIQIPPCPSGWSSLWIGYSFVMHTSAGAEGSGQALASPGSCLEEFRSAPFIECHGRGTCNYYANAYSFWLATIERSEMFKKPTPSTLKAGELRTHVSRCQVCMRRT
modifications: Arresten
notes: the α1(IV) NC1 domain
Regarding B1, in the experiment with angiogenesis, the effect on angiogenesis entry was “inhibit angiogenesis”.

B2: endostatin: 20-kDa C-terminal fragment of type XVIII collagen (protein, UniProt P39060 1572-1754, looked up)
Endostatin: HSHRDFQPVLHLVALNSPLSGGMRGIRGADFQCFQQARAVGLAGTFRAFLSSRLQDLYSIVRRADRAAVPIVNLKDELLFPSWEALFSGSEGPLKPGARIFSFDGKDVLRHPTWPQKSVWHGSDPNGRRLTESYCETWRTEAPSATGQASSLLGGRLLGQSAASCHHAYIVLCIENSFMTASK
modifications: Endostatin
notes: 20-kDa C-terminal fragment of type XVIII collagen
In the case of B2, the “effect on α5β1 integrin” value in the experiment with α5β1 integrin [7] is “inhibit α5β1 integrin”. For the same molecule, in the experiment on cancer patients (combination, ref Alday-Parejo et al., 2019), the “clinical results with chemotherapies and radiotherapies” value was “the results were inconsistent”.

B3: Tumstatin: the α3(IV) NC1 domain (protein, UniProt Q01955 1426-1670, looked up)
Tumstatin: PGLKGKRGDSGSPATWTTRGFVFTRHSQTTAIPSCPEGTVPLYSGFSFLFVQGNQRAHGQDLGTLGSCLQRFTTMPFLFCNVNDVCNFASRNDYSYWLSTPALMPMNMAPITGRALEPYISRCTVCEGPAIAIAVHSQTTDIPPCPHGWISLWKGFSFIMFTSAGSEGTGQALASPGSCLEEFRASPFLECHGRGTCNYYSNSYSFWLASLNPERMFRKPIPSTVKAGELEKIISRCQVCMKKRH
modifications: Tumstatin
notes: the α3(IV) NC1 domain
As to B3, in the experiment on αvβ3 integrin, the “integrin mediating anti-tumor activity” value is on record as “mediated through binding to αvβ3 integrin”. Also, the effect on angiogenesis result with angiogenesis is listed as “inhibit angiogenesis”.

B4: Canstatin: the α2(IV) NC1 domain (protein, UniProt P08572 1486-1712, looked up)
Canstatin: VSIGYLLVKHSQTDQEPMCPVGMNKLWSGYSLLYFEGQEKAHNQDLGLAGSCLARFSTMPFLYCNPGDVCYYASRNDKSYWLSTTAPLPMMPVAEDEIKPYISRCSVCEAPAIAIAVHSQDVSIPHCPAGWRSLWIGYSFLMHTAAGDEGGGQSLVSPGSCLEDFRATPFIECNGGRGTCHYYANKYSFWLTTIPEQSFQGSPSADTLKAGLIRTHISRCQVCMKNL
modifications: Canstatin
notes: the α2(IV) NC1 domain
B4: the effect on angiogenesis result in the experiment with angiogenesis is listed as “inhibit angiogenesis”.
